Experimental data published in patent publication US20260167693A1 (ANGELES THERAPEUTICS, published 2026).

T1: CD19-ECD-GGSG-NLuc-AcV5 (human)
T1 construct: also called CD19-GGSG-NLuc-AcV5; Flag-CD19-GGSG-NLuc-AcV5
T1 chain: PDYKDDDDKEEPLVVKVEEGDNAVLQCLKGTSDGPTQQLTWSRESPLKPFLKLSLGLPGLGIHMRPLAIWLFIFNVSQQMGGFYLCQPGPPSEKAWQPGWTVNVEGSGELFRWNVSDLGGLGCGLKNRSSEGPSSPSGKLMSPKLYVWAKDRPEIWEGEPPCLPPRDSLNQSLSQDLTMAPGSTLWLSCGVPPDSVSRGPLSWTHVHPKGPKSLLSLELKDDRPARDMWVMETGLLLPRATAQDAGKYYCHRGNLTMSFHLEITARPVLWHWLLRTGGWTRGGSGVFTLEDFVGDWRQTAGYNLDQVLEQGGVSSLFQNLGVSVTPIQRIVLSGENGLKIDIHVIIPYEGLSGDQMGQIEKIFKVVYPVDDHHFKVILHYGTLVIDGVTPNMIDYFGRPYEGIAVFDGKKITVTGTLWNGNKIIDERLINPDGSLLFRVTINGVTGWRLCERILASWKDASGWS

T2: human CD19 (human, UniProt P15391 20-556)
T2 sequence (looked up): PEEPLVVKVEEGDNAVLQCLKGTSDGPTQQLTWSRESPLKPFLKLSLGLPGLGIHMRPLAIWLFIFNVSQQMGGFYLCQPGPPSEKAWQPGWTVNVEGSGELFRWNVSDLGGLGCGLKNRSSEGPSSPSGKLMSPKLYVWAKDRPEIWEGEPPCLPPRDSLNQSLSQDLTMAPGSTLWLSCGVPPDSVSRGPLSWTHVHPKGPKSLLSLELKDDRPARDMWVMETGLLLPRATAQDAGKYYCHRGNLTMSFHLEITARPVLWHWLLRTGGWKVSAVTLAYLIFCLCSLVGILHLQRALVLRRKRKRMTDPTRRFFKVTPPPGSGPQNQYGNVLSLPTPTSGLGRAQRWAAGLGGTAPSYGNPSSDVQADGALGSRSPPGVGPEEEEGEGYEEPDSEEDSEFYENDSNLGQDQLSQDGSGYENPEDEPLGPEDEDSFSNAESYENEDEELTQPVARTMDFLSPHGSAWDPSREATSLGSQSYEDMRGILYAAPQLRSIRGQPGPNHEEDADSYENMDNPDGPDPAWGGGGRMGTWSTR

B1: CD8SP-FMC63-vL-EAAAK-[hTCRb-KACIAH]-F-P2A-SP-FMC63-vH-EAAAK-v2-[hTCRa-CSDVP]-F-F2A-PAC (other)
TCR beta: DIQMTQTTSSLSASLGDRVTISCRASQDISKYLNWYQQKPDGTVKLLIYHTSRLHSGVPSRFSGSGSGTDYSLTISNLEQEDIATYFCQQGNTLPYTFGGGTKLEITEAAAKEDLKNVFPPEVAVFEPSKAEIAHTQKATLVCLATGFYPDHVELSWWVNGKEVHSGVCTDPQPLKEQPALNDSRYCLSSRLRVSATFWQNPRNHFRCQVQFYGLSENDEWTQDRAKPVTQIVSAEAWGRADCGITSASYHQGVLSATILYEILLGKATLYAVLVSALVLMAMVKRKDSRG
TCR alpha: EVKLQESGPGLVAPSQSLSVTCTVSGVSLPDYGVSWIRQPPRKGLEWLGVIWGSETTYYNSALKSRLTIIKDNSKSQVFLKMNSLQTDDTAIYYCAKHYYYGGSYAMDYWGQGTSVTVSSEAAAKIQNPDPAVYQLRDSKSSDKSVCLFTDFDSQTNVSQSKDSDVYITDKCVLDMRSMDFKSNSAVAWSNKSDFACANAFNNSIIPEDTFFPSSDVPCDVKLVEKSFETDTNLNFQNLSVIGFRILLLKVAGFNLLMTLRLWSS
notes: Polyprotein PRT 12435; also called 040617-C09
B2: CD8SP-CD19-MOR0028-vL-Myc2-[hTCRb-KACIAH]-F-P2A-SP-CD19-MOR0028-vH-Myc4-[hTCRa-CSDVP]-F-F2A-PAC (other)
TCR beta: DIVMTQSPATLSLSPGERATLSCRSSKSLQNVNGNTYLYWFQQKPGQSPQLLIYRMSNLNSGVPDRFSGSGSGTEFTLTISSLEPEDFAVYYCMQHLEYPITFGAGTKLEIKEQKLISEEDLGSGEDLKNVFPPEVAVFEPSKAEIAHTQKATLVCLATGFYPDHVELSWWVNGKEVHSGVCTDPQPLKEQPALNDSRYCLSSRLRVSATFWQNPRNHFRCQVQFYGLSENDEWTQDRAKPVTQIVSAEAWGRADCGITSASYHQGVLSATILYEILLGKATLYAVLVSALVLMAMVKRKDSRG
TCR alpha: EVQLVESGGGLVKPGGSLKLSCAASGYTFTSYVMHWVRQAPGKGLEWIGYINPYNDGTKYNEKFQGRVTISSDKSISTAYMELSSLRSEDTAMYYCARGTYYYGTRVFDYWGQGTLVTVSSEQKLISEEDLGSGIQNPDPAVYQLRDSKSSDKSVCLFTDFDSQTNVSQSKDSDVYITDKCVLDMRSMDFKSNSAVAWSNKSDFACANAFNNSIIPEDTFFPSSDVPCDVKLVEKSFETDTNLNFQNLSVIGFRILLLKVAGFNLLMTLRLWSS
notes: also called 022817-L08
B3: CD8SP-CD19-hu-mROO5-vL-[hTCRb-KACIAH]-F-P2A-SP-CD19-hu-mROO5-vH-[hTCRa-CSDVP]-F-F2A-PAC (other)
TCR beta: DIQMTQSPSSLSASVGDRVTITCKASDHINNWLAWYQQKPGQAPKLLIYGATTLETGVPSRFSGSGSGTDYTLTISSLQPEDFATYYCQQSWNTPWTFGQGTKLEIKREDLKNVFPPEVAVFEPSKAEIAHTQKATLVCLATGFYPDHVELSWWVNGKEVHSGVCTDPQPLKEQPALNDSRYCLSSRLRVSATFWQNPRNHFRCQVQFYGLSENDEWTQDRAKPVTQIVSAEAWGRADCGITSASYHQGVLSATILYEILLGKATLYAVLVSALVLMAMVKRKDSRG
TCR alpha: QVQLQQPGAELVKPGASVKMSCKASGYAFSSYWINWMKQKPGQGLEWIGQIYPGDGDTNYNGKFKGRATLTADTSSSTAYMQLSSLTSEDSAVYFCARSITTVVGCAMDYWGQGTSVTVSSIQNPDPAVYQLRDSKSSDKSVCLFTDFDSQTNVSQSKDSDVYITDKCVLDMRSMDFKSNSAVAWSNKSDFACANAFNNSIIPEDTFFPSSDVPCDVKLVEKSFETDTNLNFQNLSVIGFRILLLKVAGFNLLMTLRLWSS
B4: CD8SP-CD19-hu-mROO5-vL-[hTCRa-CSDVP]-F-F2A-SP-CD19-hu-mROO5-vH-[hTCRb-KACIAH]-F-P2A-PAC (other)
TCR alpha: DIQMTQSPSSLSASVGDRVTITCKASDHINNWLAWYQQKPGQAPKLLIYGATTLETGVPSRFSGSGSGTDYTLTISSLQPEDFATYYCQQSWNTPWTFGQGTKLEIKRIQNPDPAVYQLRDSKSSDKSVCLFTDFDSQTNVSQSKDSDVYITDKCVLDMRSMDFKSNSAVAWSNKSDFACANAFNNSIIPEDTFFPSSDVPCDVKLVEKSFETDTNLNFQNLSVIGFRILLLKVAGFNLLMTLRLWSS
TCR beta: QVQLQQPGAELVKPGASVKMSCKASGYAFSSYWINWMKQKPGQGLEWIGQIYPGDGDTNYNGKFKGRATLTADTSSSTAYMQLSSLTSEDSAVYFCARSITTVVGCAMDYWGQGTSVTVSSEDLKNVFPPEVAVFEPSKAEIAHTQKATLVCLATGFYPDHVELSWWVNGKEVHSGVCTDPQPLKEQPALNDSRYCLSSRLRVSATFWQNPRNHFRCQVQFYGLSENDEWTQDRAKPVTQIVSAEAWGRADCGITSASYHQGVLSATILYEILLGKATLYAVLVSALVLMAMVKRKDSRG
B5: CD8SP-CD19Bu12-vL-V5-[hTCRb-WT]-F-P2A-CD19Bu12-vH-Myc-[hTCRa-WT]-F-F2A-PAC (other)
TCR beta: EIVLTQSPATLSLSPGERATLSCSASSSVSYMHWYQQKPGQAPRLLIYDTSKLASGIPARFSGSGSGTDFTLTISSLEPEDVAVYYCFQGSVYPFTFGQGTKLEIKRGKPIPNPLLGLDSTGSGEDLKNVFPPEVAVFEPSEAEISHTQKATLVCLATGFYPDHVELSWWVNGKEVHSGVSTDPQPLKEQPALNDSRYCLSSRLRVSATFWQNPRNHFRCQVQFYGLSENDEWTQDRAKPVTQIVSAEAWGRADCGFTSESYQQGVLSATILYEILLGKATLYAVLVSALVLMAMVKRKDSRG
TCR alpha: QVQLQESGPGLVKPSQTLSLTCTVSGGSISTSGMGVGWIRQHPGKGLEWIGHIWWDDDKRYNPALKSRVTISVDTSKNQFSLKLSSVTAADTAVYYCARMELWSYYFDYWGQGTLVTVSSEQKLISEEDGSGIQNPDPAVYQLRDSKSSDKSVCLFTDFDSQTNVSQSKDSDVYITDKTVLDMRSMDFKSNSAVAWSNKSDFACANAFNNSIIPEDTFFPSPESSCDVKLVEKSFETDTNLNFQNLSVIGFRILLLKVAGFNLLMTLRLWSS
B6: CD8SP-V5-[hTCRb-KACIAH]-F-P2A-CD8SP-CD19-hu-mROO5-vL-Gly-Ser-Linker-CD19-hu-mROO5-vH-Myc-[hTCRa-CSDVP]-F-F2A-PAC (other)
TCR beta: GKPIPNPLLGLDSTGSGEDLKNVFPPEVAVFEPSKAEIAHTQKATLVCLATGFYPDHVELSWWVNGKEVHSGVCTDPQPLKEQPALNDSRYCLSSRLRVSATFWQNPRNHFRCQVQFYGLSENDEWTQDRAKPVTQIVSAEAWGRADCGITSASYHQGVLSATILYEILLGKATLYAVLVSALVLMAMVKRKDSRG
TCR alpha: DIQMTQSPSSLSASVGDRVTITCKASDHINNWLAWYQQKPGQAPKLLIYGATTLETGVPSRFSGSGSGTDYTLTISSLQPEDFATYYCQQSWNTPWTFGQGTKLEIKRGGGGSGGGGSGGGGSQVQLQQPGAELVKPGASVKMSCKASGYAFSSYWINWMKQKPGQGLEWIGQIYPGDGDTNYNGKFKGRATLTADTSSSTAYMQLSSLTSEDSAVYFCARSITTVVGCAMDYWGQGTSVTVSSEQKLISEEDGSGIQNPDPAVYQLRDSKSSDKSVCLFTDFDSQTNVSQSKDSDVYITDKCVLDMRSMDFKSNSAVAWSNKSDFACANAFNNSIIPEDTFFPSSDVPCDVKLVEKSFETDTNLNFQNLSVIGFRILLLKVAGFNLLMTLRLWSS
B7: CD8SP-V5-[hTCRb-KACIAH]-F-P2A-CD8SP-hCD19-EUK5-13-vL-Gly-Ser-Linker-hCD19-EUK5-13-vH-Myc-[hTCRa-CSDVP]-F-F2A-PAC (other)
TCR beta: GKPIPNPLLGLDSTGSGEDLKNVFPPEVAVFEPSKAEIAHTQKATLVCLATGFYPDHVELSWWVNGKEVHSGVCTDPQPLKEQPALNDSRYCLSSRLRVSATFWQNPRNHFRCQVQFYGLSENDEWTQDRAKPVTQIVSAEAWGRADCGITSASYHQGVLSATILYEILLGKATLYAVLVSALVLMAMVKRKDSRG
TCR alpha: LPVLTQPPSVSVAPGKTARITCGGNNIGSKSVHWYQQKPGQAPVLVVYDDSDRPSGIPERFSGSNSGNTATLTISRVEAGDEADYYCQVWDSSSDYVVFGGGTKLTVLGGGGSGGGGSGGGGSEVQLVQSGAEVKKPGESLKISCKGSGYSFTSYWIGWVRQMPGKGLEWMGIIYPGDSDTRYSPSFQGQVTISADKSISTAYLQWSSLKASDTAMYYCARQVWGWQGGMYPRSNWWYNLDSWGQGTLVTVSSEQKLISEEDGSGIQNPDPAVYQLRDSKSSDKSVCLFTDFDSQTNVSQSKDSDVYITDKCVLDMRSMDFKSNSAVAWSNKSDFACANAFNNSIIPEDTFFPSSDVPCDVKLVEKSFETDTNLNFQNLSVIGFRILLLKVAGFNLLMTLRLWSS
B8: CD8SP-pre-TCRa-del48-F-F2A-CD8SP-CD19-hu-mRO05-1-scFv-V5-[hTCRb-S57C-opt]-F-P2A-Pac (other)
chain: TPFPSLAPPIMLLVDGKQQMVVVCLVLDVAPPGLDSPIWFSAGNGSALDAFTYGPSPATDGTWTNLAHLSLPSEELASWEPLVCHTGPGAEGHSRSTQPMHLSGEASTARTCPQEPLRGTPGGALWLGVLRLLLFKLLLFDLLLTCSCLCDPAGPLPSPATTTRLRALGSHRLHPATETGGREATSSPRPQPRDRRWGDTPPGRKPGSPV
TCR beta: DIQMTQSPSSLSASVGDRVTITCKASDHINNWLAWYQQKPGQAPKLLIYGATTLETGVPSRFSGSGSGTDYTLTISSLQPEDFATYYCQQSWNTPWTFGQGTKLEIKRGGGGSGGGGSGGGGSQVQLQQPGAELVKPGASVKMSCKASGYAFSSYWINWMKQKPGQGLEWIGQIYPGDGDTNYNGKFKGRATLTADTSSSTAYMQLSSLTSEDSAVYFCARSITTVVGCAMDYWGQGTSVTVSSGKPIPNPLLGLDSTGSGEDLKNVFPPEVAVFEPSEAEISHTQKATLVCLATGFYPDHVELSWWVNGKEVHSGVCTDPQPLKEQPALNDSRYCLSSRLRVSATFWQNPRNHFRCQVQFYGLSENDEWTQDRAKPVTQIVSAEAWGRADCGFTSESYQQGVLSATILYEILLGKATLYAVLVSALVLMAMVKRKDSRG

Target: T1, CD19-ECD-GGSG-NLuc-AcV5
Assay: NLuc binding assay, SIR on Jurkat-NFAT-GFP cells

For B1, the “CD19-GGSG-NLuc (RLU)” value was 68500 RLU.

target: T2, human CD19; assay: cell-based or functional assay

Compared with B2, B3 is higher in “NFAT-GFP (%) after overnight co-culture with RAJI cells” value (shortened to “NFAT-GFP (%)”): 31.6% for the first, 71.8% for the second.

Compared with B4, B5 is lower in “NFAT-GFP (%)” value: 52.4% for the first, 4.49% for the second.

First: B6
Second: B7
The “NFAT-GFP (%)” value of the first is higher: 9.55% for the first, 6.67% for the second.

For B8, the “NFAT-GFP (%)” value was 6.77%.
